Earlier results on one substance are cited in paper PMC2848394.

For the data set, the target named is BMP-2 (Homo sapiens) (UniProt P12643). The experiment in a line: Biacore SPR. For orientation: Surface plasmon resonance follows binding to a sensor surface in real time, without labels.
Chain of BMP-2 (Homo sapiens) (P12643 283-396): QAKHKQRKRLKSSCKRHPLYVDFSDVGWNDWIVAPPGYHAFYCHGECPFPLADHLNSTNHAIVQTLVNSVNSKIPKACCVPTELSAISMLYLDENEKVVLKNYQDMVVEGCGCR

Chain of Chordin (Q9H2X0 27-955): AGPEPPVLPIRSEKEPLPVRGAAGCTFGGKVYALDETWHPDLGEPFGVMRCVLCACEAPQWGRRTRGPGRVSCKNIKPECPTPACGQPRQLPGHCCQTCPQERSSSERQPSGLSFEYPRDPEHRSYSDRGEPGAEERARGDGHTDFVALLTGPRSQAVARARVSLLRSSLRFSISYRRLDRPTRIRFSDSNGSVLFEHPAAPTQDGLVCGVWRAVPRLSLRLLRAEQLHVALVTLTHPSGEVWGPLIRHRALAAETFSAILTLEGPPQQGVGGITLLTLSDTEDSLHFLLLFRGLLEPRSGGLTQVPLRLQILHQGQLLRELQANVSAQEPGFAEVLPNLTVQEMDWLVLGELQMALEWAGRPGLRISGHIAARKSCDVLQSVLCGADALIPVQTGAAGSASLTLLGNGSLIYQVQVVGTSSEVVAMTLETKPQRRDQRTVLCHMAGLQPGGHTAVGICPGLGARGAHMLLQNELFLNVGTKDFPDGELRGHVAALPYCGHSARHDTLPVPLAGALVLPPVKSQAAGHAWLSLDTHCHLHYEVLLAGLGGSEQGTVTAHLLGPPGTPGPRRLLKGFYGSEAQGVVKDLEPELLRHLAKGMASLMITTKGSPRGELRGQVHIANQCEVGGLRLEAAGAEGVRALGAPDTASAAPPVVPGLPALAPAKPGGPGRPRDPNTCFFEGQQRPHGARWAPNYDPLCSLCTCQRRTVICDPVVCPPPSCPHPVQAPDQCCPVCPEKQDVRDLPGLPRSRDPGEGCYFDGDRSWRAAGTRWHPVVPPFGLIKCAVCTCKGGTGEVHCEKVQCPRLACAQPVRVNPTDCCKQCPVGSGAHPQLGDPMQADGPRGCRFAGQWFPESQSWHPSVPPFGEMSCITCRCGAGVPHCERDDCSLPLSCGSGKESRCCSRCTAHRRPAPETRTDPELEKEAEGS

The Kd is a measure of binding affinity in units of concentration. Turning to Chordin (from UniProt Q9H2X0), the dissociation constant (Kd) is 12 nM.
